How the values were obtained:
[1] = tested on: GluN1/GluN2A or GluN1/GluN2B NMDARs with or without α2δ-1 in HEK293 cells; experiment: Whole-cell recording of NMDAR currents in HEK293 cells; format: cell-based, rat; design: α2δ-1 co-expression-induced increase in the NMDAR current density / NMDAR currents in cells expressing GluN1/GluN2A or GluN1/GluN2B alone: dose or concentration left out as unconfirmed
Text: Cell culture and transfection: HEK293 cells (American Type Culture Collection, Manassas, Va.) were maintained in Dulbecco's modified Eagle medium (DMEM) (#10-017-CV, Corning, Manassas, Va.) supplemented with 10% fetal bovine serum (#F4135, Sigma-Aldrich) and penicillin/streptomycin (#30-002-CI, Corning). Cells were passaged after they reached a confluence of 80-90%, approximately every 2 days. HEK293 cells were transfected using PolyJet reagents (#SL100688, SignaGen Laboratories, Gaithersburg, Md.) at a GluN1/GluN2/α2δ-1 ratio of 1:3:1 (the DNA:PolyJet ratio was 1:3).
Whole-cell recording of NMDAR currents in HEK293 cells: Whole-cell recording was performed using a fire-polished pipette (3-5 MΩ) pulled from borosilicate glass and filled with an intracellular solution containing (in mM) 135 CsF, 2 MgCl2, 0.5 CaCl2, 5 EGTA, 2 Mg-ATP and 10 HEPES (pH, 7.25; 285 mOsmol/L). The extracellular solution contained (in mM) 160 NaCl, 2.5 KCl, 0.2 CaCl2, 10 HEPES, and 10 glucose (pH, 7.35; 300-310 mOsmol/L). Whole-cell currents were recorded with an EPC-10 amplifier (HEKA Instruments, Lambrecht, Germany) at a holding potential of −60 mV. Signals were filtered at 1 kHz, digitized at 10 kHz and acquired using the Pulse program (HEKA Instruments). After the whole-cell configuration was established, the cell membrane capacitance and series resistance were electronically compensated for. Glycine (10 μM) and NMDA (300 μM) were used to elicit NMDAR currents. For voltage-dependent Mg^2+ block experiments, the conductance-voltage relation of NMDARs was assessed when 2 mM MgCl2 was added to the extracellular solution. The sensitivity of NMDARs to Mg^2+ was estimated by fitting current-voltage relationships to a Boltzmann function (Zhou et al., 2012). All HEK293 cell recording experiments were performed at 25° C.

Cacna2d1 KO mice = experiment: Nerve injury-induced pain hypersensitivity in Cacna2d1 KO mice; format: in vivo, mouse
Method: Conventional α2δ-1 KO mice (C57BL/6 genetic background) were generated as described previously (Muller et al., 2010). Two breeding pairs of α2δ-1^+/− mice were purchased from Medical Research Council (Harwell Didcot, Oxfordshire, UK), and α2δ-I^−/− mice and α2δ-1^+/+ (wild-type) littermates were obtained by breeding the heterozygous mice. The spared nerve injury (SNI) procedure […] was performed on both male and female mice (10-11 weeks of age). Under a surgical microscope, the left common peroneal and tibial nerves were ligated and sectioned, leaving the sural nerve intact. The sham procedure consisted of the same surgery without nerve ligation and sectioning.
Behavioral assessments of nociception: To detect tactile allodynia, von Frey filaments were applied to the animals' left hindpaws (ipsilateral to the nerve injury). The rats or mice were placed individually in suspended chambers on a mesh floor. […] Using the up-down method, the tactile stimulus that produced a 50% likelihood of a withdrawal response was calculated (Fuller-Bicer et al., 2009).
To quantify the mechanical nociceptive threshold in the rats and mice (Patel et al., 2013; Dolphin et al., 2012), the paw pressure tests were conducted on the hindpaw with an analgesiometer (Ugo Basile, Varese, Italy). […]

SNL rats = experiment: Withdrawal thresholds in spinal nerve ligation (SNL), sham and naive rats; format: in vivo, rat
Text: Animal models of neuropathic pain: All surgical preparations and experimental protocols were approved by the Animal Care and Use Committee of the University of Texas MD Anderson Cancer Center and conformed to the National Institutes of Health guidelines for the ethical use of animals. Male Sprague-Dawley rats (8-10 weeks of age) were purchased from Harlan Laboratories (Indianapolis, Ind.). L5 and L6 spinal nerve ligation (SNL) were used as an experimental model of neuropathic pain (Cole et al., 2005). In brief, anesthesia was induced with 2-3% isoflurane, isolated the left L5-L6 spinal nerves and ligated them tightly with 6-0 silk sutures. The rats in the sham control group underwent the same surgical procedures except for the nerve ligation.
Intrathecal catheters were implanted in some SNL group rats during isoflurane-induced anesthesia 2-3 weeks after SNL surgery. Briefly, the anesthetized animal was placed on a stereotaxic frame, and a small incision was made at the back of its neck. Then, a small puncture was made in the atlanto-occipital membrane of the cisterna magna, and a PE-10 catheter (˜8 cm) was inserted with the caudal tip reaching the lumbar enlargement of the spinal cord (Luo et al., 2001; Patel et al., 2013). The rostral end of the catheter was exteriorized and closed the wound with sutures. The animals were allowed to recover for at least 4 days before the intrathecal injections were performed. Animals displaying signs of motor or neurological dysfunction were immediately killed with an intraperitoneal injection of phenobarbital (200 mg/kg) or by inhalation of CO2.
Behavioral assessments of nociception: To detect tactile allodynia, von Frey filaments were applied to the animals' left hindpaws (ipsilateral to the nerve injury). The rats or mice were placed individually in suspended chambers on a mesh floor. After an acclimation period of 30 min, a series of calibrated von Frey filaments were applied (Stoelting, Wood Dale, Ill.) perpendicularly to the plantar surface of the hindpaw with sufficient force to bend the filament for 6 s. Brisk withdrawal or paw flinching was considered a positive response. After a response, the filament of the next lower force was applied. In the absence of a response, the filament of the next greater force was applied. Using the up-down method, the tactile stimulus that produced a 50% likelihood of a withdrawal response was calculated (Fuller-Bicer et al., 2009).
To quantify the mechanical nociceptive threshold in the rats and mice (Patel et al., 2013; Dolphin et al., 2012), the paw pressure tests were conducted on the hindpaw with an analgesiometer (Ugo Basile, Varese, Italy). The device was activated by pressing a foot pedal, which triggered a motor that applied a constantly increasing force on a linear scale. […]

[2] = biological target: T1, N-type Ca2+ channels (Cav2.2, Cavb1, α2δ-1) (UniProt P54290+Q00975); experiment: VACC (N-type Ca2+ channel) currents in HEK293 cells; format: cell-based; settings: HEK293 cotransfected with Cav2.2, Cavb1 and α2δ-1, 60 min
T1 construct: expressed in transfected cells; host or cells: HEK293

[3] = biological target: T2, NMDARs of RVLM-projecting PVN neurons (Rattus norvegicus, UniProt P35439+Q00959+Q00960); experiment: Recordings of RVLM-projecting PVN neurons in slices of WKY rats and SHRs; format: cell-based
T2 construct: from tissue; host or cells: rat hypothalamic slices containing the PVN (Sprague-Dawley, WKY, SHR) and synaptosomes made from them
T2 sequence (Q00959 20-1464 limits assumed, other chains not shown): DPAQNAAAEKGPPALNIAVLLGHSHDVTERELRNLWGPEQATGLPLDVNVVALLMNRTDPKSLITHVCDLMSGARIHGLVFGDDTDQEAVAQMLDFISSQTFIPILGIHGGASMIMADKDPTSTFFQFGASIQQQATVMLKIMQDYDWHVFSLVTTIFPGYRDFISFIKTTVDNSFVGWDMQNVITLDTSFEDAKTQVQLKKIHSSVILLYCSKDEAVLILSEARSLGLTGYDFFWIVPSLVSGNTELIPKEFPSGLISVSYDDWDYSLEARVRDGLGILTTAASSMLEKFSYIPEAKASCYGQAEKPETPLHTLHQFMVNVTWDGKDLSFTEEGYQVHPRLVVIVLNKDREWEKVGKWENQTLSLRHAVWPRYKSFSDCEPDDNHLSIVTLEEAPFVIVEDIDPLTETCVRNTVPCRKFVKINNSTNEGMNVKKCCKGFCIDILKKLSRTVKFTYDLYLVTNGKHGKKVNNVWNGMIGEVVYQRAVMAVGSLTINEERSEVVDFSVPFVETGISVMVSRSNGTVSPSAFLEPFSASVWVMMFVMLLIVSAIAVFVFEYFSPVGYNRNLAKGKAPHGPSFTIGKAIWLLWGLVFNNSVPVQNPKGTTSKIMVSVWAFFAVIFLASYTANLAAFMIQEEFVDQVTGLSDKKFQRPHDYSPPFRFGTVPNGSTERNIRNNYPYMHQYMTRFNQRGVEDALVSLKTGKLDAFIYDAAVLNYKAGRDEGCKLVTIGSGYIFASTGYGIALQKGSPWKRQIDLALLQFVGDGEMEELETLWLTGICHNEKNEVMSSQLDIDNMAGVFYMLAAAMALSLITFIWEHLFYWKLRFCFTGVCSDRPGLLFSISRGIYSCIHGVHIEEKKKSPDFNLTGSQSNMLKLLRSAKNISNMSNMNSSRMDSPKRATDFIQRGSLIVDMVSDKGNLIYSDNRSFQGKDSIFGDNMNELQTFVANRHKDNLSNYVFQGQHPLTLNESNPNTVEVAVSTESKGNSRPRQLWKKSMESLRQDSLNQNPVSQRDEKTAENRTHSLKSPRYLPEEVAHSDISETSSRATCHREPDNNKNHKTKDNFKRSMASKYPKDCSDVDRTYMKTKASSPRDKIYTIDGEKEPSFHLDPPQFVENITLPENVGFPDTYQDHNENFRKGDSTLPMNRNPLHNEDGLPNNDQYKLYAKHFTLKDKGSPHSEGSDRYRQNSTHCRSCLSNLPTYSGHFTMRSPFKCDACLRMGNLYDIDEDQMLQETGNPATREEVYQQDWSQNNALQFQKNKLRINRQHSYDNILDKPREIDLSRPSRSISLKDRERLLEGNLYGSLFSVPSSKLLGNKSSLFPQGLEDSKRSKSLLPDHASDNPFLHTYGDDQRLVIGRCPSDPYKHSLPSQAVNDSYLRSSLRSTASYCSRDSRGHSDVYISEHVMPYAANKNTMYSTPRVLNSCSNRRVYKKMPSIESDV
T2 sequence (Q00960 27-1482, other chains not shown): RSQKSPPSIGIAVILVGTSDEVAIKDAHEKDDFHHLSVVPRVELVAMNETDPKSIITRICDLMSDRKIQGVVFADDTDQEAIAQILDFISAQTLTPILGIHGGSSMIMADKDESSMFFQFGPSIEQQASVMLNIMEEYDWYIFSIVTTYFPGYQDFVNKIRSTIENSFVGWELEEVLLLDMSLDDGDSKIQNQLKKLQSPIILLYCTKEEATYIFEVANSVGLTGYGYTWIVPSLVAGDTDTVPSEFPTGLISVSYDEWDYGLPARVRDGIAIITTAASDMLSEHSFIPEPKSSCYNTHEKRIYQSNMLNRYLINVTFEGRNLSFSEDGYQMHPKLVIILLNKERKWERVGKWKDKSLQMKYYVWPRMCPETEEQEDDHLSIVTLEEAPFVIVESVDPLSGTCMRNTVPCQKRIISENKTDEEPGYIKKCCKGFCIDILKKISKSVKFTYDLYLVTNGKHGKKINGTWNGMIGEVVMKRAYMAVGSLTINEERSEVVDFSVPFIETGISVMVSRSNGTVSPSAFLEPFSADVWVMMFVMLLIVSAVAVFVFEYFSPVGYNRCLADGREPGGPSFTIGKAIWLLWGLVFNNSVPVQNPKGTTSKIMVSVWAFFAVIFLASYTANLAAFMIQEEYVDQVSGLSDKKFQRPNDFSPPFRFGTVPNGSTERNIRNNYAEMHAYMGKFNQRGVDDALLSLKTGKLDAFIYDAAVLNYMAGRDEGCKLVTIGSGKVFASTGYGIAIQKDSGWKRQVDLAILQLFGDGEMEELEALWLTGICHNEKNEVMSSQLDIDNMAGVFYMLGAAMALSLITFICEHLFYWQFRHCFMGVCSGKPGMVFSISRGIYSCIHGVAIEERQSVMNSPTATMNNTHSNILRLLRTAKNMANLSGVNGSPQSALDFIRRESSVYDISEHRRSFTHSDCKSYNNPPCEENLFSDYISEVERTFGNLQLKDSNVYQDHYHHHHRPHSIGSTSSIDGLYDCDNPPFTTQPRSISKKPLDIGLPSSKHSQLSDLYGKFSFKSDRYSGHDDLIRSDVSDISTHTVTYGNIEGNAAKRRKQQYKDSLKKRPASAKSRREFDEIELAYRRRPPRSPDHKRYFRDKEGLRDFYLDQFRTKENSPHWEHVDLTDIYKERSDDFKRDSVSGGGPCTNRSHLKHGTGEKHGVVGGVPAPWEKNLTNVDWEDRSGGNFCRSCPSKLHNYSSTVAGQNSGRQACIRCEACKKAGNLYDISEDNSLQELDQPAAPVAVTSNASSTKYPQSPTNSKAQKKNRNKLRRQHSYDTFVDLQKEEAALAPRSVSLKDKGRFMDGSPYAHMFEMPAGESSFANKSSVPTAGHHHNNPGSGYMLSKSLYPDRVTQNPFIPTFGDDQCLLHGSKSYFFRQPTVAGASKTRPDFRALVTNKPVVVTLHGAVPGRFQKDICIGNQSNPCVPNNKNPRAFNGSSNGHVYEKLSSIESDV

| Compound | α2δ-1 co-expression-induced increase in the NMDAR current density ([1]; HEK293) | NMDAR currents in cells expressing GluN1/GluN2A or GluN1/GluN2B alone ([1]; HEK293 without α2δ-1) | α2δ-1-reduced voltage-dependent Mg2+ block of GluN1/GluN2A NMDARs ([1]; at −40 and −60 mV) | nerve injury-induced pain hypersensitivity in Cacna2d1 KO mice (Cacna2d1 KO mice) | pain hypersensitivity of SNL rats (SNL rats; SNL rats, peptides intrathecal or systemic, siRNA intrathecal) | withdrawal thresholds in sham control rats (SNL rats; sham control rats) | VACC (N-type Ca2+ channel) currents [2] | VACC (N-type Ca2+ channel) currents ([2]; listed as α2δ-1 Tat peptide) | puff NMDA currents of labelled PVN neurons ([3]; SHRs) | ratio of NMDAR-EPSCs to AMPAR-EPSCs ([3]; SHRs) | baseline frequency of mEPSCs of labelled PVN neurons ([3]; SHRs, AP5 50 μmol L-1, gabapentin 100 μmol L-1, peptides 1 μmol L-1, 60 min) | amplitude of evoked NMDAR-EPSCs of labelled PVN neurons ([3]; SHRs, gabapentin 100 μmol L-1, peptides 1 μmol L-1, 60 min) | amplitude of puff NMDA currents ([3]; WKY rats) | frequency or amplitude of mEPSCs of labelled PVN neurons ([3]; WKY rats) | ratio of NMDAR-EPSCs to AMPAR-EPSCs ([3]; WKY rats) | amplitude of evoked AMPAR-EPSCs of labelled PVN neurons ([3]; WKY rats or SHRs) | amplitude of evoked NMDAR-EPSCs of labelled PVN neurons ([3]; WKY rats, gabapentin 100 μmol L-1, peptides 1 μmol L-1, 60 min) |
| --- | --- | --- | --- | --- | --- | --- | --- | --- | --- | --- | --- | --- | --- | --- | --- | --- | --- |
| NCC1(CC(=O)O)CCCCC1 [gabapentin] | completely reversed | had no effect | reversed this effect | – | – | – | – | – | – | – | – | – | – | – | – | – | – |
| YGRKKRRQRRRVSGLNPSLWSIFGLQFILLWLVSGSRHYLW (a2d1 peptide) [α2δ-1Tat peptide, 30-amino-acid peptide mimicking the C-terminal domain of α2δ-1 fused to the cell-penetrating peptide Tat] | – | – | – | had no effect | large reduction | had no effect | no effect | had no significant effect | restored | normalized | completely normalized | fully normalized | had no effect | had no effect | had no effect | had no effect | had no effect |

Source: patent US11787839B2, “Targeting α2δ-1-bound glutamate receptors for treating diseases and disorders” (Board of Regents, The University of Texas System, priority 2017, dated 2023)
